Laboratory results taken from IntAct's records for PubMed 29892012.

B1: E3 ubiquitin-protein ligase LNX (Homo sapiens), Q8TBB1 (parent)
chain: MNQPESANDPEPLCAVCGQAHSLEENHFYSYPEEVDDDLICHICLQALLDPLDTPCGHTYCTLCLTNFLVEKDFCPMDRKPLVLQHCKKSSILVNKLLNKLLVTCPFREHCTQVLQRCDLEHHFQTSCKGASHYGLTKDRKRRSQDGCPDGCASLTATAPSPEVSAAATISLMTDEPGLDNPAYVSSAEDGQPAISPVDSGRSNRTRARPFERSTIRSRSFKKINRALSVLRRTKSGSAVANHADQGRENSENTTAPEVFPRLYHLIPDGEITSIKINRVDPSESLSIRLVGGSETPLVHIIIQHIYRDGVIARDGRLLPGDIILKVNGMDISNVPHNYAVRLLRQPCQVLWLTVMREQKFRSRNNGQAPDAYRPRDDSFHVILNKSSPEEQLGIKLVRKVDEPGVFIFNVLDGGVAYRHGQLEENDRVLAINGHDLRYGSPESAAHLIQASERRVHLVVSRQVRQRSPDIFQEAGWNSNGSWSPGPGERSNTPKPLHPTITCHEKVVNIQKDPGESLGMTVAGGASHREWDLPIYVISVEPGGVISRDGRIKTGDILLNVDGVELTEVSRSEAVALLKRTSSSIVLKALEVKEYEPQEDCSSPAALDSNHNMAPPSDWSPSWVMWLELPRCLYNCKDIVLRRNTAGSLGFCIVGGYEEYNGNKPFFIKSIVEGTPAYNDGRIRCGDILLAVNGRSTSGMIHACLARLLKELKGRITLTIVSWPGTFL
B2: Histone-lysine N-methyltransferase SETD5 (Homo sapiens), Q9C0A6 (parent)
chain: MSIAIPLGVTTSDTSYSDMAAGSDPESVEASPAVNEKSVYSTHNYGTTQRHGCRGLPYATIIPRSDLNGLPSPVEERCGDSPNSEGETVPTWCPCGLSQDGFLLNCDKCRGMSRGKVIRLHRRKQDNISGGDSSATESWDEELSPSTVLYTATQHTPTSITLTVRRTKPKKRKKSPEKGRAAPKTKKIKNSPSEAQNLDENTTEGWENRIRLWTDQYEEAFTNQYSADVQNALEQHLHSSKEFVGKPTILDTINKTELACNNTVIGSQMQLQLGRVTRVQKHRKILRAARDLALDTLIIEYRGKVMLRQQFEVNGHFFKKPYPFVLFYSKFNGVEMCVDARTFGNDARFIRRSCTPNAEVRHMIADGMIHLCIYAVSAITKDAEVTIAFDYEYSNCNYKVDCACHKGNRNCPIQKRNPNATELPLLPPPPSLPTIGAETRRRKARRKELEMEQQNEASEENNDQQSQEVPEKVTVSSDHEEVDNPEEKPEEEKEEVIDDQENLAHSRRTREDRKVEAIMHAFENLEKRKKRRDQPLEQSNSDVEITTTTSETPVGEETKTEAPESEVSNSVSNVTIPSTPQSVGVNTRRSSQAGDIAAEKLVPKPPPAKPSRPRPKSRISRYRTSSAQRLKRQKQANAQQAELSQAALEEGGSNSLVTPTEAGSLDSSGENRPLTGSDPTVVSITGSHVNRAASKYPKTKKYLVTEWLNDKAEKQECPVECPLRITTDPTVLATTLNMLPGLIHSPLICTTPKHYIRFGSPFIPERRRRPLLPDGTFSSCKKRWIKQALEEGMTQTSSVPQETRTQHLYQSNENSSSSSICKDNADLLSPLKKWKSRYLMEQNVTKLLRPLSPVTPPPPNSGSKSPQLATPGSSHPGEEECRNGYSLMFSPVTSLTTASRCNTPLQFELCHRKDLDLAKVGYLDSNTNSCADRPSLLNSGHSDLAPHPSLGPTSETGFPSRSGDGHQTLVRNSDQAFRTEFNLMYAYSPLNAMPRADGLYRGSPLVGDRKPLHLDGGYCSPAEGFSSRYEHGLMKDLSRGSLSPGGERACEGVPSAPQNPPQRKKVSLLEYRKRKQEAKENSAGGGGDSAQSKSKSAGAGQGSSNSVSDTGAHGVQGSSARTPSSPHKKFSPSHSSMSHLEAVSPSDSRGTSSSHCRPQENISSRWMVPTSVERLREGGSIPKVLRSSVRVAQKGEPSPTWESNITEKDSDPADGEGPETLSSALSKGATVYSPSRYSYQLLQCDSPRTESQSLLQQSSSPFRGHPTQSPGYSYRTTALRPGNPPSHGSSESSLSSTSYSSPAHPVSTDSLAPFTGTPGYFSSQPHSGNSTGSNLPRRSCPSSAASPTLQGPSDSPTSDSVSQSSTGTLSSTSFPQNSRSSLPSDLRTISLPSAGQSAVYQASRVSAVSNSQHYPHRGSGGVHQYRLQPLQGSGVKTQTGLS
partner: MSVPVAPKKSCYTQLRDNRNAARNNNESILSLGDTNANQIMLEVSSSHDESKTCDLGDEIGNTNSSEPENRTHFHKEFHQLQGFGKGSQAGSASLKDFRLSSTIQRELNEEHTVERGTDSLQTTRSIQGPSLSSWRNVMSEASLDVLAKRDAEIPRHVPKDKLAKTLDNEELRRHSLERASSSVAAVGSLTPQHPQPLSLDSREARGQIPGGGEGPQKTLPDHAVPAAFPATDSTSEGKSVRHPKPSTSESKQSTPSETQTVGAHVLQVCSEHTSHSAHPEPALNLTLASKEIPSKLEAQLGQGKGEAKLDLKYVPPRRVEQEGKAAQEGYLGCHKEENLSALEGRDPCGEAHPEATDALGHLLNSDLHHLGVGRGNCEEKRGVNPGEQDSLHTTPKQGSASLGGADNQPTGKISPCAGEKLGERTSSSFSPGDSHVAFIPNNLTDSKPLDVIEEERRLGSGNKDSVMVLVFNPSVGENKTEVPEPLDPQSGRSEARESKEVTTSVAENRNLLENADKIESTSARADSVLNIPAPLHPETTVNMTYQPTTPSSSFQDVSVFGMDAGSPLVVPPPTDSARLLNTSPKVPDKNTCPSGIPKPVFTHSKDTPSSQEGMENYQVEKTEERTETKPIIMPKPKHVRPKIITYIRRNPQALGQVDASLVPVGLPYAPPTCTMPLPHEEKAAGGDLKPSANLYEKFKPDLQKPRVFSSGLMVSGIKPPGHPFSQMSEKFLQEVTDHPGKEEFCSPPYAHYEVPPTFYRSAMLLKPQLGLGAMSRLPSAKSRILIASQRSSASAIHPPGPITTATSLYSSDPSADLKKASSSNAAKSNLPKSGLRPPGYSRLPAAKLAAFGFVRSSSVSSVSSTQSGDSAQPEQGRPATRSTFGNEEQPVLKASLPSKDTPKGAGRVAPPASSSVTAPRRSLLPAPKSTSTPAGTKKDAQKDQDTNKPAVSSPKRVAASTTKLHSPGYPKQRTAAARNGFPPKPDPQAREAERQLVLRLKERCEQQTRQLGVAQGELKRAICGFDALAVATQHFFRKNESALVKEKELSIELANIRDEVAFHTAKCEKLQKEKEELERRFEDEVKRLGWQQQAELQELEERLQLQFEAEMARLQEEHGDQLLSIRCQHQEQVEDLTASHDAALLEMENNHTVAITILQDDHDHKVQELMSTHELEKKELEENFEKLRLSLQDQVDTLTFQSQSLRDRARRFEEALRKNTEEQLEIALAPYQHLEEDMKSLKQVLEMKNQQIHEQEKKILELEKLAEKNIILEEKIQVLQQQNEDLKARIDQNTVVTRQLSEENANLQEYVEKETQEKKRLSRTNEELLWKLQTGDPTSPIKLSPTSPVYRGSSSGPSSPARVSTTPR
B3: Abl interactor 2 (Homo sapiens), Q9NYB9 (parent)
chain: MAELQMLLEEEIPGGRRALFDSYTNLERVADYCENNYIQSADKQRALEETKAYTTQSLASVAYLINTLANNVLQMLDIQASQLRRMESSINHISQTVDIHKEKVARREIGILTTNKNTSRTHKIIAPANLERPVRYIRKPIDYTILDDIGHGVKWLLRFKVSTQNMKMGGLPRTTPPTQKPPSPPMSGKGTLGRHSPYRTLEPVRPPVVPNDYVPSPTRNMAPSQQSPVRTASVNQRNRTYSSSGSSGGSHPSSRSSSRENSGSGSVGVPIAVPTPSPPSVFPAPAGSAGTPPLPATSASAPAPLVPATVPSSTAPNAAAGGAPNLADGFTSPTPPVVSSTPPTGHPVQFYSMNRPASRHTPPTIGGSLPYRRPPSITSQTSLQNQMNGGPFYSQNPVSDTPPPPPPVEEPVFDESPPPPPPPEDYEEEEAAVVEYSDPYAEEDPPWAPRSYLEKVVAIYDYTKDKEDELSFQEGAIIYVIKKNDDGWYEGVMNGVTGLFPGNYVESIMHYSE
partner: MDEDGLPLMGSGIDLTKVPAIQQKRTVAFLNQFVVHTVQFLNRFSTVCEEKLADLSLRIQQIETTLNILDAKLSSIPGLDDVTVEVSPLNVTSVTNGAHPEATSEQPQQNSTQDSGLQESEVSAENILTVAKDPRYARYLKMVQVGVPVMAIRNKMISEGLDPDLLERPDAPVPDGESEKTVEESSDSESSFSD
B4: Angio-associated migratory cell protein (Homo sapiens), Q13685 (parent)
chain: MESESESGAAADTPPLETLSFHGDEEIIEVVELDPGPPDPDDLAQEMEDVDFEEEEEEEGNEEGWVLEPQEGVVGSMEGPDDSEVTFALHSASVFCVSLDPKTNTLAVTGGEDDKAFVWRLSDGELLFECAGHKDSVTCAGFSHDSTLVATGDMSGLLKVWQVDTKEEVWSFEAGDLEWMEWHPRAPVLLAGTADGNTWMWKVPNGDCKTFQGPNCPATCGRVLPDGKRAVVGYEDGTIRIWDLKQGSPIHVLKGTEGHQGPLTCVAANQDGSLILTGSVDCQAKLVSATTGKVVGVFRPETVASQPSLGEGEESESNSVESLGFCSVMPLAAVGYLDGTLAIYDLATQTLRHQCQHQSGIVQLLWEAGTAVVYTCSLDGIVRLWDARTGRLLTDYRGHTAEILDFALSKDASLVVTTSGDHKAKVFCVQRPDR
partner: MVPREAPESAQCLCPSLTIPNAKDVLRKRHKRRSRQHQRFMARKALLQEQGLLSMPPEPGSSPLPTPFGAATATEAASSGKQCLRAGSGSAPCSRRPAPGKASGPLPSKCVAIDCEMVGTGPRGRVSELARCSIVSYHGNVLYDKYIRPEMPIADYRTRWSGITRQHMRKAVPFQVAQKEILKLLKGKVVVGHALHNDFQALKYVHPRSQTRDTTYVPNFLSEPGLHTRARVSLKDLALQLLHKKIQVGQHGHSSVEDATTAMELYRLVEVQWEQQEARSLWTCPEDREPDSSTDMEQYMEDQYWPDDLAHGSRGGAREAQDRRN
B5: Angio-associated migratory cell protein (Homo sapiens), Q13685 (parent)
chain: B4 chain

Variants of: B1
Details: with srsf1_human SRSF1, Q07955
Sequence of srsf1_human SRSF1, Q07955 (Q07955 whole entry): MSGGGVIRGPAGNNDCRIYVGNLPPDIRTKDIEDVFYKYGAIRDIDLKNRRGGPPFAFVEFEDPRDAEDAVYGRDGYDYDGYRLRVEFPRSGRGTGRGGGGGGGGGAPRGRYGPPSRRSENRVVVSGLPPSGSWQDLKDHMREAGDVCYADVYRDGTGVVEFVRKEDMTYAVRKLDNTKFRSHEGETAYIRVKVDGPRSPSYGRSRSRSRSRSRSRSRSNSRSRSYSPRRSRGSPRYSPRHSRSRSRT

Variant | effect of a mutation on the interaction
E295K | disrupting interaction strength

Variants of: B1
Details: with pmgt1_human POMGNT1, Q8WZA1
Sequence of pmgt1_human POMGNT1, Q8WZA1 (Q8WZA1 whole entry): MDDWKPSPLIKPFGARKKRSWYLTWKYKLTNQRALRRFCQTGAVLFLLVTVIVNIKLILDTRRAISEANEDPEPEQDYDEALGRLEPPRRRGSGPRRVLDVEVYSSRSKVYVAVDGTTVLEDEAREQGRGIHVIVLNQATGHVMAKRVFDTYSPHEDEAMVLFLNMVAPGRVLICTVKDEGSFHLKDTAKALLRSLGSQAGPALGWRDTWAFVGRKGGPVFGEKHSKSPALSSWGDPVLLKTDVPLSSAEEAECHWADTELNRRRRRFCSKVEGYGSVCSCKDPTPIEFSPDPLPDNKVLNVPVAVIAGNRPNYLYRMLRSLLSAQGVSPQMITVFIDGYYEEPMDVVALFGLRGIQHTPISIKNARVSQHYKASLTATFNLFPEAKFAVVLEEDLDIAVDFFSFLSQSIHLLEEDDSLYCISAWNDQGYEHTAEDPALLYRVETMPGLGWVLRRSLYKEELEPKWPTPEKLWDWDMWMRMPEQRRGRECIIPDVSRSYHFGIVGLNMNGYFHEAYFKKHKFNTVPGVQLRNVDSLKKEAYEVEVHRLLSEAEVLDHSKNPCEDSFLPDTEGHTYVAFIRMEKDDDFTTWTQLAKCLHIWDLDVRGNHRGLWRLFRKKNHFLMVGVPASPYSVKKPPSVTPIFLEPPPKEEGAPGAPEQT

Variant | effect of a mutation on the interaction
E295K | disrupting interaction strength

Variants of: B1
Details: with nagk_human NAGK

Variant | effect of a mutation on the interaction
E295K | disrupting interaction strength

Variants of: B1
Details: with cep72_human CEP72, Q9P209
Sequence of cep72_human CEP72, Q9P209 (Q9P209 whole entry): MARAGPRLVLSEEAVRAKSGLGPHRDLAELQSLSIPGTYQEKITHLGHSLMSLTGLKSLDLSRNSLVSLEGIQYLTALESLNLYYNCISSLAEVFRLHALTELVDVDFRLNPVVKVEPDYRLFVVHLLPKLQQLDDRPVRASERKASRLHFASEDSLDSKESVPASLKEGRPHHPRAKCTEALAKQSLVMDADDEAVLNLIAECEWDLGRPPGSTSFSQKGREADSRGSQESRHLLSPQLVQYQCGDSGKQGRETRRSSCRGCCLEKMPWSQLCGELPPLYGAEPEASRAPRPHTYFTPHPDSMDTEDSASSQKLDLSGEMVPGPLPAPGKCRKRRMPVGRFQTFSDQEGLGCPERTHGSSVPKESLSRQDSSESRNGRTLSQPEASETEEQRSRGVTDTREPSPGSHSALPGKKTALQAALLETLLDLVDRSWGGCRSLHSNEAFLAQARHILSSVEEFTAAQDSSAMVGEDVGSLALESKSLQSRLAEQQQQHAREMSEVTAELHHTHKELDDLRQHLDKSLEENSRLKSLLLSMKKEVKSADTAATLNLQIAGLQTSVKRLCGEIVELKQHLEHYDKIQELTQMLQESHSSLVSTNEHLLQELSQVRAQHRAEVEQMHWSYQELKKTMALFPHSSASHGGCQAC

Variant | effect of a mutation on the interaction
E295K | disrupting interaction strength

Variants of: B1
Details: with mk09_human MAPK9, P45984

Variant | effect of a mutation on the interaction
E295K | with no effect

Variants of: B1
Details: with grb2_human GRB2, P62993
Sequence of grb2_human GRB2, P62993 (P62993 whole entry, looked up): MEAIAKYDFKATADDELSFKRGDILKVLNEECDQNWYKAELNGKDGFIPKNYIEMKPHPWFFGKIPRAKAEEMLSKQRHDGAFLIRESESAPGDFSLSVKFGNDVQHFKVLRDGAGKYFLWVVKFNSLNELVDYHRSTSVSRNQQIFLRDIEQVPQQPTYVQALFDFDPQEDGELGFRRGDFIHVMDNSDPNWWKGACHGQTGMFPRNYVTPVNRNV

Variant | effect of a mutation on the interaction
E295K | disrupting interaction strength

Variants of: B1
Details: with ldoc1_human LDOC1, O95751
Sequence of ldoc1_human LDOC1, O95751 (O95751 whole entry): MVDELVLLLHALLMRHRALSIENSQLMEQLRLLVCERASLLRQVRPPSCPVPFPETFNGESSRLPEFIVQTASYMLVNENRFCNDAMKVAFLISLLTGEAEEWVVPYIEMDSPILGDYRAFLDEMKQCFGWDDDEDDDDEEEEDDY

Variant | effect of a mutation on the interaction
E295K | disrupting interaction strength

Variants of: B1
Details: with kcd17_human KCTD17, Q8N5Z5
Sequence of kcd17_human KCTD17, Q8N5Z5 (Q8N5Z5 whole entry): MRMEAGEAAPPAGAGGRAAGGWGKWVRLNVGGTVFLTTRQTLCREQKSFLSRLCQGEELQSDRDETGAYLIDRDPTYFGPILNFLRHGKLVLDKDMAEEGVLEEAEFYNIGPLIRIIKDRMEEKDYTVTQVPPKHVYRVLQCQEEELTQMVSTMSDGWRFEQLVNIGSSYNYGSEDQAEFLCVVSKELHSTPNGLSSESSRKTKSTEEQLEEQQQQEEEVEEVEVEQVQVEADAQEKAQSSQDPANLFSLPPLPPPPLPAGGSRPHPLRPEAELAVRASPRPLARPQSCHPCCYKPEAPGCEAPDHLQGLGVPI

Variant | effect of a mutation on the interaction
E295K | disrupting interaction strength

Variants of: B1
Details: with rpia_human RPIA

Variant | effect of a mutation on the interaction
E295K | disrupting interaction strength

Variants of: B1
Details: with tera_human VCP

Variant | effect of a mutation on the interaction
E295K | disrupting interaction strength

Variants of: B1
Details: with KRT15, P19012
Sequence of KRT15, P19012 (P19012 whole entry): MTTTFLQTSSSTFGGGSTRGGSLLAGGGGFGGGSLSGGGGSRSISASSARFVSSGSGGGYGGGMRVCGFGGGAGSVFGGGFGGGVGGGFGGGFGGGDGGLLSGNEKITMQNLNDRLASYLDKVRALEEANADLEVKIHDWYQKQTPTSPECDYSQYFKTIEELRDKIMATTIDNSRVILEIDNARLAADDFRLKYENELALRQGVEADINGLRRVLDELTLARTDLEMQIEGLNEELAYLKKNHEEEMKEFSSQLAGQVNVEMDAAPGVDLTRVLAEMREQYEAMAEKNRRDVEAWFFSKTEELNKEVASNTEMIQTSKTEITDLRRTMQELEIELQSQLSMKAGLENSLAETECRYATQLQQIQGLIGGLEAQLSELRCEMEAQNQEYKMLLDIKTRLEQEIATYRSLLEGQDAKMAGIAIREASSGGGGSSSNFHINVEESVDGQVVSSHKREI

Variant | effect of a mutation on the interaction
E295K | disrupting interaction strength

Variants of: B1
Details: with rop1a_human ROPN1, Q9HAT0
Sequence of rop1a_human ROPN1, Q9HAT0 (Q9HAT0 whole entry): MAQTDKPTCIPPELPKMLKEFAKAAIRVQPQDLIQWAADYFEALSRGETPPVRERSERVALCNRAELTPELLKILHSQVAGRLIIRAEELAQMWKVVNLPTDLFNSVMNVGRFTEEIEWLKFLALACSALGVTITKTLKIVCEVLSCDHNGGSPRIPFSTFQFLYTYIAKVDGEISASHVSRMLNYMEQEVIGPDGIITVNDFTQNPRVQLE

Variant | effect of a mutation on the interaction
E295K | disrupting interaction strength

Variants of: B1
Details: with nt2na_human NOTCH2NLA

Variant | effect of a mutation on the interaction
E295K | disrupting interaction strength

Variants of: B1
Details: with mt21a_human METTL21A

Variant | effect of a mutation on the interaction
E295K | disrupting interaction strength

Variants of: B1
Details: with zbt8a_human ZBTB8A

Variant | effect of a mutation on the interaction
E295K | disrupting interaction strength

Variants of: B1
Details: with dnpep_human DNPEP

Variant | effect of a mutation on the interaction
E295K | disrupting interaction strength

Variants of: B1
Details: with clk2_human CLK2, P49760
Sequence of clk2_human CLK2, P49760 (P49760 whole entry, looked up): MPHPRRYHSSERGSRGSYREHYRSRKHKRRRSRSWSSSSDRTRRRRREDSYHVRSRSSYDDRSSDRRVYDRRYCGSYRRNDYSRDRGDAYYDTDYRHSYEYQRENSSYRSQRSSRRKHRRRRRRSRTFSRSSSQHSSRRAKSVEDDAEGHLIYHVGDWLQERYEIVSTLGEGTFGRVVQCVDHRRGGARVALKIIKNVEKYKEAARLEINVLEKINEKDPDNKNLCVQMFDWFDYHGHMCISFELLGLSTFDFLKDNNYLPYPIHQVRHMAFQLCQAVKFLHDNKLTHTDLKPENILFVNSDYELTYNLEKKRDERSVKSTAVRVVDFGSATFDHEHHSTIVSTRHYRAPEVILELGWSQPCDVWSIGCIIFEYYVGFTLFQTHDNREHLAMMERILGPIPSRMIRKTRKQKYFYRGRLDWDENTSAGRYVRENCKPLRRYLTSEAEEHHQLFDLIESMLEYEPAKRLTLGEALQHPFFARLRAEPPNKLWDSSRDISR

Variant | effect of a mutation on the interaction
E295K | disrupting interaction strength

Variants of: B1
Details: with sat1_human SAT1, P21673
Sequence of sat1_human SAT1, P21673 (P21673 whole entry): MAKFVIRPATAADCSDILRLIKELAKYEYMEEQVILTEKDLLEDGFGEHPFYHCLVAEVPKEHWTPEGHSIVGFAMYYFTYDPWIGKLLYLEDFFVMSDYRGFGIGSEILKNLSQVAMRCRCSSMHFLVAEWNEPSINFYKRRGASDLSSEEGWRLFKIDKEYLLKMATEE

Variant | effect of a mutation on the interaction
E295K | disrupting interaction strength

Variants of: B1
Details: with neca2_human NECAB2, Q7Z6G3
Sequence of neca2_human NECAB2, Q7Z6G3 (Q7Z6G3 whole entry): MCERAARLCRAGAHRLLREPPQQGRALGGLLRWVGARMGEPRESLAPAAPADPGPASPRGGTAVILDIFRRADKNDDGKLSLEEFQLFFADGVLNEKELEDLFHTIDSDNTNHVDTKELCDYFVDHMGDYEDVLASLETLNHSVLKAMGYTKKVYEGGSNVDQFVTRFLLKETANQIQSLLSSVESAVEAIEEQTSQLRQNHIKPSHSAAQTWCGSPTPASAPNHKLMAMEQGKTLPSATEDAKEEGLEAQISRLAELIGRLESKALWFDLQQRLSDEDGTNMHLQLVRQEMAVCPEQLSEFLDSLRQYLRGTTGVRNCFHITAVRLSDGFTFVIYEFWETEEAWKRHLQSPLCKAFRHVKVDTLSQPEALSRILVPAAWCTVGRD

Variant | effect of a mutation on the interaction
E295K | disrupting interaction strength

Variants of: B1
Details: with tri23_human TRIM23, P36406

Variant | effect of a mutation on the interaction
E295K | disrupting interaction strength

Variants of: B1
Details: with mr1l1_human MRFAP1L1, Q96HT8
Sequence of mr1l1_human MRFAP1L1, Q96HT8 (Q96HT8 whole entry): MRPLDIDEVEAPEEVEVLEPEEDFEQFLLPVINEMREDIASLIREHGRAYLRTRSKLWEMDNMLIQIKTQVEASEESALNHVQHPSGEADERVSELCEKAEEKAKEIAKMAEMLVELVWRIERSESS

Variant | effect of a mutation on the interaction
E295K | disrupting interaction strength

Variants of: B1
Details: with ndk7_human NME7, Q9Y5B8
Sequence of ndk7_human NME7, Q9Y5B8 (Q9Y5B8 whole entry): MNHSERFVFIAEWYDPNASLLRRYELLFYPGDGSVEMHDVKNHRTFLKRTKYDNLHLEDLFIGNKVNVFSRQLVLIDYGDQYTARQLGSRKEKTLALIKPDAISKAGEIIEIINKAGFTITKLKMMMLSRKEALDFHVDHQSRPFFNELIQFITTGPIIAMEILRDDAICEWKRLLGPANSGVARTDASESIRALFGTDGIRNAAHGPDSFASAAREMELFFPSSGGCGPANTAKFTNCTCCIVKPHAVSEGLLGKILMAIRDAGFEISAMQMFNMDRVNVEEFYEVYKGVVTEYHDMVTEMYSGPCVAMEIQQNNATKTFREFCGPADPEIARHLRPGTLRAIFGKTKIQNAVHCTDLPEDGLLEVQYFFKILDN

Variant | effect of a mutation on the interaction
E295K | disrupting interaction strength

Variants of: B2
Details: with mtus2_human MTUS2, Q5JR59

Variant | effect of a mutation on the interaction
G669R | with no effect

Variants of: B3
Details: with wasc3_human WASHC3, Q9Y3C0

Variant | effect of a mutation on the interaction
R373C | with no effect

Variants of: B3
Details: with wasc3_human WASHC3, Q9Y3C0
Remark: another data set of the same source

Variant | effect of a mutation on the interaction
E202K | with no effect

Variants of: B4
Details: with aen_human AEN

Variant | effect of a mutation on the interaction
I343F | with no effect

Variants of: B5
Details: with bhe40_human BHLHE40, O14503
Sequence of bhe40_human BHLHE40, O14503 (O14503 whole entry): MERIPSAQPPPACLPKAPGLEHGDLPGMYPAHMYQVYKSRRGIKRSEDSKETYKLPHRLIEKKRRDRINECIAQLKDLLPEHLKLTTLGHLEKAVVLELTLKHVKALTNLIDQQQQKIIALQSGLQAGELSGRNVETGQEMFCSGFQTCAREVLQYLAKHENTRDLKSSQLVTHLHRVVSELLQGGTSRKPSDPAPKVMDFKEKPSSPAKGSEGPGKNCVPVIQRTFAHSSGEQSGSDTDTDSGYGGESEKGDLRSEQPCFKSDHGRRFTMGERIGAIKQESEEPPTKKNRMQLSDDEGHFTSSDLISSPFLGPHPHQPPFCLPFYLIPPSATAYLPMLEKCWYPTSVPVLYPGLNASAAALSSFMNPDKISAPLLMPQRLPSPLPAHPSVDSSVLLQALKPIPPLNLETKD

Variant | effect of a mutation on the interaction
I343F | with no effect
